Reference: patent US20120309939A1 (Scripps Research, published 2012)

Target: T1, human VEGF-R2(KDR):Fc fusion protein (R&D Systems) (human, UniProt P35968 20-764)
T1 construct: Bought reagent, coated on Maxisorp plates; also called VEGF receptor; human VEGF receptor; not shown: Fc part of the bought fusion
Assay: ELISA on plates coated with VEGF-R2(KDR):Fc; bound VEGF detected with biotinylated anti-VEGF

T1 sequence (P35968 20-764 limits assumed): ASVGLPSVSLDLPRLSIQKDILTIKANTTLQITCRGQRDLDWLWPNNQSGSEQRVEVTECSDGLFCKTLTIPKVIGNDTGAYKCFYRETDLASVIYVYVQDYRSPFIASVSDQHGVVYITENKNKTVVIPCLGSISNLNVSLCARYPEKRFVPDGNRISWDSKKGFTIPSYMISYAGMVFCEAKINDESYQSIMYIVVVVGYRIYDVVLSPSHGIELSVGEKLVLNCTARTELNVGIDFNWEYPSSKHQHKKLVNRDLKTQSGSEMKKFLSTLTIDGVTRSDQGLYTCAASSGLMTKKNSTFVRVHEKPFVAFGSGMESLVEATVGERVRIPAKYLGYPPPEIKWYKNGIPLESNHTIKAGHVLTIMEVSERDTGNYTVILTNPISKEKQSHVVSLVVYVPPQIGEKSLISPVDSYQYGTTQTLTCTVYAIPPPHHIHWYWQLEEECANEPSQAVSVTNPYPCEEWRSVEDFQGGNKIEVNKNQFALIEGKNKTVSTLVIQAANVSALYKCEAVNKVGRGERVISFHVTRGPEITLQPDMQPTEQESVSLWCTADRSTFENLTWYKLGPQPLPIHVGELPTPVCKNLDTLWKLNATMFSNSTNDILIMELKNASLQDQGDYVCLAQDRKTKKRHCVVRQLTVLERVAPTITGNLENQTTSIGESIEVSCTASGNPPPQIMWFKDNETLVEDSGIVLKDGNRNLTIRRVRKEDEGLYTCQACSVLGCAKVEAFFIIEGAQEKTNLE

binding result: binds
B1: algal-expressed human vascular endothelial growth factor (VEGF) isoform 121, without signal peptide, with C-terminal FLAG-tag, made in the C. reinhardtii … (ligand)
chain: MVPAPMAEGGGQNHHEVVKFMDVYQRSYCHPIETLVDIFQEYPDEIEYIFKPSCVPLMRCGGCCNDEGLECVPTEESNITMQIMRIKPHQGQHIGEMSFLQHNKCECRPKKDRARQENCDKPRRGTGENLYFQGSGGGGSDYKDDDDKGTG
notes: Native VEGF is active as a dimer; also called algal VEGF; algae-derived VEGF
